Test results reported in patent publication US20030059862A1 (Human Genome Sciences, published 2003).

What was measured:
biotinylated APRIL [1] = molecular target: T1, biotinylated APRIL (Homo sapiens (Human), UniProt O75888 105-250, biotinylated using NHS-biotin at a molar ratio of 20:1 biotin:APRIL); assay: scFv inhibition of bio-APRIL (5 ng/ml) binding to coated BCMA fusion protein, streptavidin-DELFIA; partial inhibition; unit cell reads 'nM (3)'
T1 construct: also called bio-APRIL
T1 sequence: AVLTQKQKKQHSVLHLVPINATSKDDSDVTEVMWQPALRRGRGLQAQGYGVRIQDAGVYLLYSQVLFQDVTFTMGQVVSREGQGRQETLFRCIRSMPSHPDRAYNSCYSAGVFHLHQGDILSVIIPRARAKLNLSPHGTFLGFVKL
Experimental: (§1) APRIL binds to BCMA with higher affinity than its binds to TACI so, inhibition of biotinylated APRIL (bio-APRIL) binding to BCMA can be used to screen selection outputs as periplasmic extracts for neutralizers and then assess potency of the positives as purified scFvs. To perform this assay, each well of a black 96 well flat-bottomed plate (Costar) was coated with 1.25 ng BCMA fusion protein overnight at 4° C. The wells were blocked with 3% milk in PBS for an hour at room temperature. ScFv were then added in the presence of 5 ng/ml biotinylated APRIL for 90 minutes at room temperature. Binding of biotinylated APRIL was detected via streptavidin Delfia (Wallac) added at a 1:1000 dilution in Delfia assay buffer (Wallac). After an hour at room temperature this was read on a Wallac 1420 workstation at 620 nm.

biotinylated APRIL [2] = molecular target: T1, biotinylated APRIL; assay: scFv inhibition of bio-APRIL (50 ng/ml) binding to coated TACI fusion protein, streptavidin-DELFIA; partial inhibition; unit cell reads 'nM (1)'
Experimental: as §1
An assay similar to that described above can also be used to test if anti-APRIL antibodies of the invention are able to inhibit binding of bio-APRIL to TACI. In this case, the plate was coated with 2.5 ng TACI fusion protein per well and scFv were added in the presence of 50 ng/ml biotinylated APRIL instead of 5 ng/ml. Otherwise, the method was identical to that for the BCMA:bio-APRIL assay.

B1: A024G01 (scFv)
scFv: EVQLVQSGAEVKKPGSSVKVSCKASGGTLSSDSITWVRQAPGQGLEWVGGLIPALGTANYAQKFQGRVTMTADRSTGTAYMELRSLKFDDTAVYYCARVSRTSYYDVLTDNNRYSYYMDVWGKGTLVTVSSGGGGSGGGGSGGGGSAHVILTQPPSVSVSPTQTATITCSGDHLGRKSLSWYQQKPGQSPVLVIYEDFKRPSGIPERFSASNSGYTATLTISGTQAMDEADYYCQAWDNRAVVFGGGTKLTVLG
IC50 (biotinylated APRIL [1]): 19 nM | IC50 (biotinylated APRIL [2]): 4 nM
